Assay results: US8697386B2, “Methods and compositions for modulating hepsin activation of macrophage-stimulating protein” (Genentech, Inc., priority 2009, dated 2014)

Assays:
[1] = biological target: T1, cell surface expressed hepsin in LnCap-34 cells (Homo sapiens, UniProt P05981); assay: Pro-MSP activation by cell surface expressed hepsin in LnCap-34 cells; format: cell-based; details: 1 μM inhibitor, 15 minutes preincubation, 125I-pro-MSP 25 μg/ml, 3 hours, 37° C.
T1 construct: expressed in transfected cells; host or cells: LnCaP-34 cells
T1 sequence (P05981 whole entry): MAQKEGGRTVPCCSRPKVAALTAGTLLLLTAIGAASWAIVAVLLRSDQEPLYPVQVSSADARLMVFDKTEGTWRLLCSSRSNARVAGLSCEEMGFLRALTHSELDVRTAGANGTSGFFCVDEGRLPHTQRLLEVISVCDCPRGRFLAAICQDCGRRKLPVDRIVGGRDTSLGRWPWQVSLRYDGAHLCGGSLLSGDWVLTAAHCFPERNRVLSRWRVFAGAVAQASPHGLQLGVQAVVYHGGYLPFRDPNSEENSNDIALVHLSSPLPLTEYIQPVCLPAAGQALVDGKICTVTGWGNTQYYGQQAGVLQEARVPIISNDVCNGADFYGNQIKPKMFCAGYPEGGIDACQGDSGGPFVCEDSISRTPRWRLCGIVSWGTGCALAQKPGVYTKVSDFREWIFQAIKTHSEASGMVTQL
Method: Confluent LnCap-34 cells cultured in 24-well plates were washed with serum-free RPMI-1640 medium and were incubated either alone or with different anti-hepsin inhibitors (1 μM of anti-hepsin antibody Fab25/1 μM of KD1/1 μM of Ac-KQLR-cmk (‘KLQR” disclosed as SEQ ID NO:10)) in serum-free RPMI-1640 medium for 15 minutes at 37° C. prior to addition of 125I-labeled pro-MSP (25 μg/ml). After incubation for 3 hours at 37° C., aliquots were removed and analyzed by SDS-PAGE (4-20% gradient gel) (Invitrogen, Carlsbad, Calif.) followed by exposure to X-ray films.

bone marrow macrophages = assay: Inhibition of nitric oxide (NO) synthesis in bone marrow macrophages; format: cell-based, mouse; details: pro-MSP 10 ng/ml mixed with hepsin 1 nM and Fab25 500 nM, 24 hours, LPS
Method: Inhibition of NO synthesis by mature MSP: Bone marrow cells obtained from collected mouse femurs were pipetted to a single-cell suspension and then spun down. Red blood cells were lysed by incubation with erythrocyte lysis buffer for 5 minutes at room temperature. Cells were then suspended in macrophage differentiation medium (DMEM with glutamine containing 10% FBS, Pen/Strep and 50 ng/ml recombinant mCSF-1). Cells were then plated onto sterile 24-well non-tissue culture dishes. Medium was changed the next day and subsequently every 2 days. After 6 days in culture, the macrophages were mature and these mature cells were washed in serum-free DMEM and further incubated for 2 hours. Different reactions (total volume 300 μL) as indicated in the figure consisting of recombinant MSP (10 ng/ml), pro-MSP (10 ng/ml), hepsin (1 nM) and Fab25 (500 nM) were added to the respective wells and cultured for 24 hours at 37° C. in a tissue culture incubator. NO production was quantified using Griess reaction (Molecular Probes) according to manufacturer's recommendation.

peritoneal macrophages = assay: Peritoneal macrophage chemotaxis assay; format: cell-based, mouse; details: pre-treatment with inhibitor
Method: Peritoneal macrophage chemotaxis and morphology change assay: Murine peritoneal resident macrophages were obtained from C57BL/6 mice by washing the peritoneal cavity with 15 ml per mouse of serum-free RPMI-1640 medium. Cells were washed and resuspended in RPMI-1640 medium containing 25 mM Hepes at a concentration of 1×10^6 cells·mL^−1. The macrophage chemotaxis assay was performed using a QCM chemotaxis assay kit with a pore size of 5 μm (Millipore). One hundred microliters of the peritoneal macrophage suspension (i.e. 10^5 cells) were added to the upper wells of the Chemotaxis cells. The bottom wells were filled with RPMI-1640 medium containing purified pro-MSP either alone or hepsin-treated at 37 C for 2 hours. The recombinant active form of human MSP (R&D Systems) was used as a positive control. After incubation at 37 C for 4 hours, the cells on the upper surface of the membrane were wiped off with a cotton swab and the migrated cells were detached using detachment buffer as per manufacturer's recommendations. Aliquots from different wells were incubated with a mixture of lysis buffer and CYPRO dye for 15 minutes. Migration was quantified by measuring the fluorescence using a microplate reader (Spectramax-M5, Molecular devices, Sunnyvale, Calif.) at an excitation wavelength of 480 nm and emission wavelength of 520 nm.

- blocking of pro-MSP proteolytic cleavage by cell surface hepsin [1]: effectively blocked
B1: Fab25: anti-hepsin antibody Fab that blocks hepsin activation of pro-MSP (antibody, V domains shown)
VH: EVQLVESGGGLVQPGGSLRLSCAASGFNFSYSYMHWVRQAPGKGLEWVASIYSYYGSTYYADSVKGRFTISADTSKNTAYLQMNSLRAEDTAVYYCARSDSWSYKSGYTQKIYSKGLDYWGQGTLVTVSS
VL: DIQMTQSPSSLSASVGDRVTITCRASQSVSSAVAWYQQKPGKAPKLLIYSASSKGVPSRFSGSRSGTDFTLTISSLQPEDFATYYCQQYYSSYYLLTFGQGTKVEIK
- effect of anti-hepsin antibody on attenuation of NO production by hepsin-activated MSP (bone marrow macrophages): did not inhibit robust production of nitric oxide
- effect of anti-hepsin antibody on attenuation of NO production by hepsin-activated MSP (bone marrow macrophages; listed as anti-hepsin antibody): completely inhibited
- effect of anti-hepsin inhibitor pre-treatment on migration of macrophages induced by hepsin-treated pro-MSP (peritoneal macrophages): marked reduction
